Results: patent publication US20050064507

Experiments:
[1] = target: T1, AF15q14 peptide GFLNEPLSSKSQRRKSLKLK (SEQ ID NO:132) (not fully specified)
T1 chain: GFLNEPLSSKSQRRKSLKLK

[2] = target: T2, ARHGAP4 peptide AGPLRKSSLKKGGRL (SEQ ID NO:98) (not fully specified)
T2 chain: AGPLRKSSLKKGGRL

[3] = target: T3, ARHGAP6 peptide DGQKRKKSLRKKLD (SEQ ID NO:92) (not fully specified)
T3 chain: DGQKRKKSLRKKLD

[4] = target: T4, ARHGAP6 peptide SAQITIPKDGQKRKKSLRKK (SEQ ID NO:156) (not fully specified)
T4 chain: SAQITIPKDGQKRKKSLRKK

[5] = target: T5, CREB1 peptide EILSRRPSYRKILND (SEQ ID NO:106) (not fully specified)
T5 chain: EILSRRPSYRKILND

[6] = target: T6, DGKZ peptide KKKKRASFKRKSSKKG (SEQ ID NO:77) (not fully specified)
T6 chain: KKKKRASFKRKSSKKG

[7] = target: T7, ERN1 peptide KLAVGRHSFSRRSGV (SEQ ID NO:94) (not fully specified)
T7 chain: KLAVGRHSFSRRSGV

[8] = target: T8, KCNH2 peptide RQRKRKLSFRRRTDKD (SEQ ID NO:86) (not fully specified)
T8 chain: RQRKRKLSFRRRTDKD

[9] = target: T9, … peptide KKPFKLSGLSFKRNRKE (SEQ ID NO:88) (not fully specified)
T9 chain: KKPFKLSGLSFKRNRKE

[10] = target: T10, MAP3K14 peptide WKGKRRSKARKKRK (SEQ ID NO:100) (not fully specified)
T10 chain: WKGKRRSKARKKRK

[11] = target: T11, MARCKS peptide KKKRFSFKKSFKLSGFSFKK (SEQ ID NO:111) (not fully specified)
T11 chain: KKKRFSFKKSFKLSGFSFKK

[12] = target: T12, MARCKS peptide KKRFSFKKSFKLSGFSFKKN (SEQ ID NO:123) (not fully specified)
T12 chain: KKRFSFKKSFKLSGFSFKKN

[13] = target: T13, MGC2941 peptide RPTPGDGEKRSRIKKSKKRK (SEQ ID NO:139) (not fully specified)
T13 chain: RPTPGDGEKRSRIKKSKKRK

[14] = target: T14, Myt1 kinase peptide PPRTPGWHQLQPRRVSFRGE (SEQ ID NO:163) (not fully specified)
T14 chain: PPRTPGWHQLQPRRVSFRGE

[15] = target: T15, NIK peptide WKGKRRSKARKKRK (SEQ ID NO:131) (not fully specified)
T15 chain: WKGKRRSKARKKRK

[16] = target: T16, PARIS1 peptide EYLERRASRRRAV (SEQ ID NO:89) (not fully specified)
T16 chain: EYLERRASRRRAV

[17] = target: T17, PLD1 peptide KYKAFIRIPIPTRRHTFRRQ (SEQ ID NO:161) (not fully specified)
T17 chain: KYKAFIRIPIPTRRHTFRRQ

[18] = target: T18, PPP1R14A peptide QKRHARVTVKYDRRE (SEQ ID NO:107) (not fully specified)
T18 chain: QKRHARVTVKYDRRE

[19] = target: T19, PRKCM peptide VHYTSKDTLRKRHYWR (SEQ ID NO:91) (not fully specified)
T19 chain: VHYTSKDTLRKRHYWR

[20] = target: T20, PSCD2 peptide AARKKRISVKKKQEQ (SEQ ID NO:93) (not fully specified)
T20 chain: AARKKRISVKKKQEQ

[21] = target: T21, PSCDBP peptide LSSMFGTLPRKSRKGSVRKQ (SEQ ID NO:144) (not fully specified)
T21 chain: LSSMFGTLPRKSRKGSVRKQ

[22] = target: T22, SDPR peptide EKIKRSSLKKVDSLKK (SEQ ID NO:104) (not fully specified)
T22 chain: EKIKRSSLKKVDSLKK

[23] = target: T23, Urotensin-2 receptor peptide LYARLARAYRRSQRASFKRA (SEQ ID NO:159) (not fully specified)
T23 chain: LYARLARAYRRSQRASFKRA

[24] = target: T24, ankyrin R peptide DLIEGRKGAQIVKRASLKRG (SEQ ID NO:152) (not fully specified)
T24 chain: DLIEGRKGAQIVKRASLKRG

[25] = target: T25, beta adducin peptide PSKSPSKKKKKFRTPSFLKK (SEQ ID NO:137) (not fully specified)
T25 chain: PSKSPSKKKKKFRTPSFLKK

[26] = target: T26, dag kinase iota peptide NRKKKRTSFKRKA (SEQ ID NO:115) (not fully specified)
T26 chain: NRKKKRTSFKRKA

[27] = target: T27, gravin peptide KKFFTQGWAGWRKKTSFRKP (SEQ ID NO:154) (not fully specified)
T27 chain: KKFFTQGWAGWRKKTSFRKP

[28] = target: T28, nuclear RNA export factor 3 peptide VRYTPYTISPYNRKGSFRKQ (SEQ ID NO:143) (not fully specified)
T28 chain: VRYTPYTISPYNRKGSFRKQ

[29] = target: T29, pleckstrin 1 peptide KAIKAIEGGQKFARKSTRRS (SEQ ID NO:126) (not fully specified)
T29 chain: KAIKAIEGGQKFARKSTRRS

[30] = target: T30, plectin peptide PLKEKKRERKTSSKSSVRKR (SEQ ID NO:125) (not fully specified)
T30 chain: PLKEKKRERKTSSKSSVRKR

[31] = target: T31, splicing factor, arginine/serine-rich 4 peptide RSRSRSRSKSKDKRKSRKRS (SEQ ID NO:134) (not fully specified)
T31 chain: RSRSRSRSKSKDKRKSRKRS

B1: PKC-theta (protein)
chain: MSPFLRIGLSNFDCGSCQSCQGEAVNPYCAVLVKEYVESENGQMYIQKKPTMYPPWDSTFDAHINKGRVMQIIVKGKNVDLISETTVELYSLAERCRKNNGKTEIWLELKPQGRMLMNARYFLEMSDTKDMNEFETEGFFALHQRRGAIKQAKVHHVKCHEFTATFFPQPTFCSVCHEFVWGLNKQGYQCRQCNAAIHKKCIDKVIAKCTGSAINSRETMFHKERFKIDMPHRFKVYNYKSPTFCEHCGTLLWGLARQGLKCDACGMNVHHRCQTKVANLCGINQKLMAEALAMIESTQQARCLRDTEQIFREGPVEIGLPCSIKNEARPPCLPTPGKREPQGISWESPLDEVDKMCHLPEPELNKERPSLQIKLKIEDFILHKMLGKGSFGKVFLAEFKKTNQFFAIKALKKDVVLMDDDVECTMVEKRVLSLAWEHPFLTHMFCTFQTKENLFFVMEYLNGGDLMYHIQSCHKFDLSRATFYAAEIILGLQFLHSKGIVYRDLKLDNILLDKDGHIKIADFGMCKENMLGDAKTNTFCGTPDYIAPEILLGQKYNHSVDWWSFGVLLYEMLIGQSPFHGQDEEELFHSIRMDNPFYPRWLEKEAKDLLVKLFVREPEKRLGVRGDIRQHPLFREINWEELERKEIDPPFRPKVKSPFDCSNFDKEFLNEKPRLSFADRALINSMDQNMFRNFSFMNPGMERLIS
in vitro phosphorylation, 1 uM peptide (% of best substrate) [1]: 34 | in vitro phosphorylation, 10 uM peptide (% of best substrate) [1]: 40 | in vitro phosphorylation (% of best substrate) [2]: 22 | in vitro phosphorylation (% of best substrate) [3]: 47 | in vitro phosphorylation, 1 uM peptide (% of best substrate) [4]: 18 | in vitro phosphorylation, 10 uM peptide (% of best substrate) [4]: 23 | in vitro phosphorylation (% of best substrate) [5]: 19 | in vitro phosphorylation (% of best substrate) [6]: 74 | in vitro phosphorylation (% of best substrate) [7]: 86 | in vitro phosphorylation (% of best substrate) [8]: 38 | in vitro phosphorylation (% of best substrate) [9]: 38 | in vitro phosphorylation (% of best substrate) [10]: 56 | in vitro phosphorylation (% of best substrate) [11]: 18 | in vitro phosphorylation, 1 uM peptide (% of best substrate) [12]: 47 | in vitro phosphorylation, 10 uM peptide (% of best substrate) [12]: 32 | in vitro phosphorylation, 1 uM peptide (% of best substrate) [13]: 31 | in vitro phosphorylation, 10 uM peptide (% of best substrate) [13]: 17 | in vitro phosphorylation, 1 uM peptide (% of best substrate) [14]: 14 | in vitro phosphorylation, 10 uM peptide (% of best substrate) [14]: 11 | in vitro phosphorylation, 1 uM peptide (% of best substrate) [15]: 53 | in vitro phosphorylation, 10 uM peptide (% of best substrate) [15]: 35 | in vitro phosphorylation (% of best substrate) [16]: 60 | in vitro phosphorylation, 1 uM peptide (% of best substrate) [17]: 19 | in vitro phosphorylation, 10 uM peptide (% of best substrate) [17]: 23 | in vitro phosphorylation (% of best substrate) [18]: 40 | in vitro phosphorylation (% of best substrate) [19]: 10 | in vitro phosphorylation (% of best substrate) [20]: 40 | in vitro phosphorylation, 1 uM peptide (% of best substrate) [21]: 35 | in vitro phosphorylation, 10 uM peptide (% of best substrate) [21]: 22 | in vitro phosphorylation (% of best substrate) [22]: 25 | in vitro phosphorylation, 1 uM peptide (% of best substrate) [23]: 21 | in vitro phosphorylation, 10 uM peptide (% of best substrate) [23]: 17 | in vitro phosphorylation, 1 uM peptide (% of best substrate) [24]: 31 | in vitro phosphorylation, 10 uM peptide (% of best substrate) [24]: 30 | in vitro phosphorylation, 1 uM peptide (% of best substrate) [25]: 40 | in vitro phosphorylation, 10 uM peptide (% of best substrate) [25]: 19 | in vitro phosphorylation, 1 uM peptide (% of best substrate) [26]: 89 | in vitro phosphorylation, 10 uM peptide (% of best substrate) [26]: 77 | in vitro phosphorylation, 1 uM peptide (% of best substrate) [27]: 34 | in vitro phosphorylation, 10 uM peptide (% of best substrate) [27]: 21 | in vitro phosphorylation, 1 uM peptide (% of best substrate) [28]: 25 | in vitro phosphorylation, 10 uM peptide (% of best substrate) [28]: 27 | in vitro phosphorylation, 1 uM peptide (% of best substrate) [29]: 46 | in vitro phosphorylation, 10 uM peptide (% of best substrate) [29]: 45 | in vitro phosphorylation, 1 uM peptide (% of best substrate) [30]: 39 | in vitro phosphorylation, 10 uM peptide (% of best substrate) [30]: 100 | in vitro phosphorylation, 1 uM peptide (% of best substrate) [31]: 36 | in vitro phosphorylation, 10 uM peptide (% of best substrate) [31]: 16
